Target: DDX3X D1 WT (Homo sapiens, UniProt O00571 135-407)
Assay: NMR CSP

Sequence of DDX3X D1 WT (O00571 135-407): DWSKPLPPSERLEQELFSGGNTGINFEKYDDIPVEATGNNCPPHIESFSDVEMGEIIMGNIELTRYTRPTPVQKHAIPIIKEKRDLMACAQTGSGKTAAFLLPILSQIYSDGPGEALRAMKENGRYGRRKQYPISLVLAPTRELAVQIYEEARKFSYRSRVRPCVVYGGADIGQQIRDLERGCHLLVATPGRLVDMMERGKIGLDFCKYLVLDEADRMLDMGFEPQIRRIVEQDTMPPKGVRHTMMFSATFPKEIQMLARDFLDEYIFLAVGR

B1: blunt 14-mer dsRNA (NMR) (dsRNA)
RNA 1: GGGCGGGCCCGCCC
RNA 2: GGGCGGGCCCGCCC
  binding result: binds

Reference: publication PMC4402148
